Biological target: Klp5-3FLAG (fission yeast) (UniProt O14343)
Assay: co-IP; protein extracts (4 mg or 8 mg) of metaphase-arrested cut9-665 cells (36°C, 2.5 hours) added to protein A Dynabeads coated with anti-Flag antibodies; blotted with anti-Flag and anti-Myc

UniProt O14343, sequence (O14343 whole entry): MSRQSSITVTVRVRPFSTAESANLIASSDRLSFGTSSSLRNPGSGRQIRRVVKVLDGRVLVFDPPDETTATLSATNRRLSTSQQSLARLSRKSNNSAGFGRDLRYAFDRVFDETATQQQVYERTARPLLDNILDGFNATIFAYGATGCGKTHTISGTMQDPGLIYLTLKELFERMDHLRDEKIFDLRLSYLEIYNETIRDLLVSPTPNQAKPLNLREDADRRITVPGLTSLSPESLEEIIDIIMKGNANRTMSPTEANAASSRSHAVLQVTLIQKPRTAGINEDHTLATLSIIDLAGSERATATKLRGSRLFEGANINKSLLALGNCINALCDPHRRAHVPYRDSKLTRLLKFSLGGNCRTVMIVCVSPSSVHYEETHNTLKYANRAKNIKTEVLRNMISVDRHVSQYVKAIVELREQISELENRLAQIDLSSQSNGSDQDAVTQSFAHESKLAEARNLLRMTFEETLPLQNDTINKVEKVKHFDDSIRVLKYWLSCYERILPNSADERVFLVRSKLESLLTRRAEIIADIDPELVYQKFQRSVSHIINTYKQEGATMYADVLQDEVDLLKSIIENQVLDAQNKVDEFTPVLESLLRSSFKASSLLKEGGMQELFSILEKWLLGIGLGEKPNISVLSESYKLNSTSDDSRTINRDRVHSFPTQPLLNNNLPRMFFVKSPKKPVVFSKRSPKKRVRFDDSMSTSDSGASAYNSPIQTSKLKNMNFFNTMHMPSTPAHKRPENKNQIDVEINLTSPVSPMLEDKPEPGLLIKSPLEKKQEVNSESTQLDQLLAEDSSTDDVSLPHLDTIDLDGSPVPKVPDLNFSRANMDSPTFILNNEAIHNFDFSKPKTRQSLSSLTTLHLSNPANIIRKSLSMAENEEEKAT

**Q.** Which reduction of binding compared to Alp7 does the source give for “Alp7-LA6-Myc (from UniProt Q9URY2 1-474) (natural protein)” here?
**A.** The reduction of binding compared to Alp7 was over 70%.
